Earlier results in publication PMC5672155.

Columns and labels:
Sec61α (Homo sapiens) = Sec61α (Homo sapiens) (UniProt P61619)
Sec63 (Homo sapiens) = Sec63 (Homo sapiens) (UniProt Q9UGP8)
LC3 (Homo sapiens) = LC3 (Homo sapiens) (UniProt Q9GZQ8)
Sec62 (Homo sapiens) = Sec62 (Homo sapiens) (UniProt Q99442)
UniProt Q99442, sequence (Q99442 whole entry): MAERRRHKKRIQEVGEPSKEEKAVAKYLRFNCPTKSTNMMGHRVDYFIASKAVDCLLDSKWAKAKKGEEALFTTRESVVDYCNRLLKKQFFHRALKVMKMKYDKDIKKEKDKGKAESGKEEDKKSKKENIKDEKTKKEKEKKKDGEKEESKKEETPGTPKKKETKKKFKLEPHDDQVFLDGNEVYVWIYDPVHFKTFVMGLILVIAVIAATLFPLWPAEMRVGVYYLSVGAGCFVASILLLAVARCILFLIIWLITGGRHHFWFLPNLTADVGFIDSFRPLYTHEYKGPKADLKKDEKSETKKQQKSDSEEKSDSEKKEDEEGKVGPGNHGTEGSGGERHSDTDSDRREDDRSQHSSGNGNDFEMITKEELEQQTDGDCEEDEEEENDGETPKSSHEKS

UniProt P61619, sequence (P61619 whole entry): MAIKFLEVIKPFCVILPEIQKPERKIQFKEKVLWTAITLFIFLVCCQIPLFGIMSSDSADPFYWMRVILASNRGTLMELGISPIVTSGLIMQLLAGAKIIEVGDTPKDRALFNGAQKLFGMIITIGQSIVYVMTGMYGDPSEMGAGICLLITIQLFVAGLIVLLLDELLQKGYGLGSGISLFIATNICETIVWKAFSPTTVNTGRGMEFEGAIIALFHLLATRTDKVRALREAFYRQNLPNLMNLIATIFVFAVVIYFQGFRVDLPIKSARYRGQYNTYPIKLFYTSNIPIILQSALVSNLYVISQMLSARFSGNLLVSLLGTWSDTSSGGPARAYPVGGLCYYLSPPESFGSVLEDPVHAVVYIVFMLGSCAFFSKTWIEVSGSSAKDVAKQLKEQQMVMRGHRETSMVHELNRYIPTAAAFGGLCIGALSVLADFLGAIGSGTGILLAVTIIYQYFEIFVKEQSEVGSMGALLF

BiP (from UniProt P11021)
Kd (Sec61α (Homo sapiens)): 500 µM
Kd (Sec63 (Homo sapiens)): 5 µM

Sec62 (from UniProt Q99442)
Kd (LC3 (Homo sapiens)): 20 µM

Sec63 (from UniProt Q9UGP8)
Kd (Sec62 (Homo sapiens)): 0.005 µM
